Measured values: paper PMC10411901, “FIRRM cooperates with FIGNL1 to promote RAD51 disassembly during DNA repair” (Science Advances, 2023)

T1: recombinant full-length FIRRM (human, UniProt Q9NSG2 1-853)
T1 construct: full-length codon-optimized human FIRRM from GenScript; Insect cell form: modified pFastBac dual vector with an N-terminal GFP tag removable with TEV protease; also called iFIRRM (form from insect cells); source: purified from bacteria (E. coli BL21RP) or Sf9 insect cells
T1 sequence (looked up): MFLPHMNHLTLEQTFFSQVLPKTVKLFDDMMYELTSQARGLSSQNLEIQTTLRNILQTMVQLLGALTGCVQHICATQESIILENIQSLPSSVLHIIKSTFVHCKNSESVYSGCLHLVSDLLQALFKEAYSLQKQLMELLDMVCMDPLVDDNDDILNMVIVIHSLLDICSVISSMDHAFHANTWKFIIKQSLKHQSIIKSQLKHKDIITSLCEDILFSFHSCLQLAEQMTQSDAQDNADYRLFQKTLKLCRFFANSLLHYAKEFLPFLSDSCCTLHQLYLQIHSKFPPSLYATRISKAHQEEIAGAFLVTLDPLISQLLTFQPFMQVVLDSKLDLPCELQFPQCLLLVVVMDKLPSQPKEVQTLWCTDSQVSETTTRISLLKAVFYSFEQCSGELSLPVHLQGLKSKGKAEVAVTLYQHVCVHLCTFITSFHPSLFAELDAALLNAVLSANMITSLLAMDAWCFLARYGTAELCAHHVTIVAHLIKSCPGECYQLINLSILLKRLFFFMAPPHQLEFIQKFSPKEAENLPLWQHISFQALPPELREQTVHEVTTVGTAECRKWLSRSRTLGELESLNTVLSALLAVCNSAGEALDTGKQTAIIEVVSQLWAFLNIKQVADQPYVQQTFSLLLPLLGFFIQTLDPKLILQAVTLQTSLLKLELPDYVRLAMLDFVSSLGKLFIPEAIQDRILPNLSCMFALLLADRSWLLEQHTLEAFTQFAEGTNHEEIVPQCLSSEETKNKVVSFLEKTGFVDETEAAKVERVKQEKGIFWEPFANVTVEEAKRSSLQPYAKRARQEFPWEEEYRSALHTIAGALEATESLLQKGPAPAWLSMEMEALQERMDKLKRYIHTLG

B1: recombinant full-length FIGNL1 (natural protein, human, UniProt Q6PIW4 1-674, looked up)
chain: MQTSSSRSVHLSEWQKNYFAITSGICTGPKADAYRAQILRIQYAWANSEISQVCATKLFKKYAEKYSAIIDSDNVESGLNNYAENILTLAGSQQTDSDKWQSGLSINNVFKMSSVQKMMQAGKKFKDSLLEPALASVVIHKEATVFDLPKFSVCGSSQESDSLPNSAHDRDRTQDFPESNRLKLLQNAQPPMVTNTARTCPTFSAPVGESATAKFHVTPLFGNVKKENHSSAKENIGLNVFLSNQSCFPAACENPQRKSFYGSGTIDALSNPILNKACSKTEDNGPKEDSSLPTFKTAKEQLWVDQQKKYHQPQRASGSSYGGVKKSLGASRSRGILGKFVPPIPKQDGGEQNGGMQCKPYGAGPTEPAHPVDERLKNLEPKMIELIMNEIMDHGPPVNWEDIAGVEFAKATIKEIVVWPMLRPDIFTGLRGPPKGILLFGPPGTGKTLIGKCIASQSGATFFSISASSLTSKWVGEGEKMVRALFAVARCQQPAVIFIDEIDSLLSQRGDGEHESSRRIKTEFLVQLDGATTSSEDRILVVGATNRPQEIDEAARRRLVKRLYIPLPEASARKQIVINLMSKEQCCLSEEEIEQIVQQSDAFSGADMTQLCREASLGPIRSLQTADIATITPDQVRPIAYIDFENAFRTVRPSVSPKDLELYENWNKTFGCGK
notes: Insect cell form: modified pFastBac dual vector with an N-terminal GFP tag removable with TEV protease; source: purified from bacteria (E. coli BL21RP) or Sf9 insect cells
B2: FIGNL1 purified from insect cells (natural protein, human, UniProt Q6PIW4 1-674, looked up)
chain: B1 chain
notes: The GFP tag is removable with tobacco etch virus protease; the results speak of the protein from insect cells; source: Sf9 insect cells (baculovirus), purified (gel filtration)

How the values were obtained:
[1] = target: T1, recombinant full-length FIRRM; assay: co-IP; purified recombinant RAD51, FIRRM and FIGNL1 together; anti-RAD51 14B4 on protein A/G Sepharose; IPB buffer (20 mM KPO4 pH 7.4, 175 mM KCl, 0.5 mM EDTA, 0.5% NP-40, 10% glycerol, 1 mM DTT); Western blot; settings: both partners purified
[2] = target: the molecule itself; assay: cryo-EM two-dimensional class averages; FIGNL1 10 μM in 1× PBS with 2 mM MgCl2 and 1 mM AMP-PNP on graphene oxide lacey carbon grids; 2D classes from 1287 particles; hexamer model from an AlphaFold monomer

| Binder | binding result [1] | stoichiometry N [2] |
| --- | --- | --- |
| B1 | binds |  |
| B2 |  | 6 |
